Results from patent US20250026814A1 (UNIVERSITY OF CHICAGO, published 2025).

T1: MERS-CoV RBD WT (MERS-CoV, UniProt K9N5Q8 367-606)
T1 sequence: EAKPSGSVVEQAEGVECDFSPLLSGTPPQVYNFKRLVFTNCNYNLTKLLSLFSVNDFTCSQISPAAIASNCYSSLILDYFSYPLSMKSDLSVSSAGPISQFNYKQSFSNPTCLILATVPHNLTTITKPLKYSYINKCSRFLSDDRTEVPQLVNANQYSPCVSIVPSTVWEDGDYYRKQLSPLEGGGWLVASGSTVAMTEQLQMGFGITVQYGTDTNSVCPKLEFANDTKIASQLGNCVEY

B1: S728-1261 (antibody, V domains shown)
VH: QVQLQESGPGLVKPSGTLSLTCAVSGGSISNNNWWIWVRQPPGKGLEWIGEIHHSGSTDYNPSLKSRVTISIDKSKNQFSLRLSSVTAADTAVYYCARKPEPYYYYYYMDVWGKGTTVTVSS
VL: ETVLTQSPGTLSLSPGERATLSCRASQSVSSSYITWYQQKPGQAPRLLIYGASSRATGIPDRFSGSGSGTDFTLTISRLEPEDFAVYYCQQYRSPWGLTFGPGTKVDIK
B2: S728-537 (antibody, V domains shown)
VH: QVQLVQSGAEVKKPGASVKVSCKTSGYTFTGFYLHWLRQAPGQGLEWMGRINPNTGDTDYAQKFQGRVTMTRDTSISTAYMELSRLRADDTAVYYCARTPGQTRQLFVGTNVLDVWGQGTMVTVSS
VL: DIQMTQSPSSVSASVGDRVTITCRASQGISSWLAWYQQKPGKAPKVLIFAASSLQSGVPSRFSGSGSGTDFTLTITSLQPEDFATYFCQQTNSFPPTFGGGTKVEIK
B3: S728-1157 (antibody, V domains shown)
VH: EVQLVESGGGLVQPGGSLRLSCAASGLLVSRNYMNWVRQAPGKGLEWVSIIYSGGSTFYADSVEGRFTISRDESKNTLYLQMNSLRTDDTAVYYCARDLSDYGGIDCWGQGTLVTVSS
VL: YELTQPLSVSMALGQTARISCGGDNVGSQNVHWYQQRPGQAPVLVIYRDSNRPSGIPERFSGSKSGNTATLTISRAQAGDEADYYCQVWDSSTVAFGGGTKLTVL
B4: S728-209 (antibody, V domains shown)
VH: QITLKESGPTLVKPTQTLTLTCTLSGFSLSTSGVSVGWIRQPPGKALEWLAVIFWDDDKRYNPSLKSRLTIAKDTSKSQVVLTMTNLDPVDTGTYYCVSGSSYYYYYYMDVWGKGTTVTVSS
VL: DIQMTQSPSSVSASIGDRVTITCRASQDISTWLAWYQQKPGRAPNLLIYGASSLQSGVPSRFSGSGSGTDFTLTISSLQPEDFATYYCQQATSFPLTFGGGTKVEIK
B5: S728-369 (antibody, V domains shown)
VH: QVQLQESGPGLVKPSQTLSLTCSVSGGSISSGGYYWSWIRQHPGKGLEWIGYMYYSGSTYYNPSLKSRVTIFVDTSKNHFSLKLTSVTAADTAVYYCARDSYENYYGSGSLEPNYHHYNMDVWGQGTTVTVSS
VL: DVQMTQSPSTLSASIGDRVTITCRASQSISGWLAWYQQRPGKAPKLLIYRASSLDFGVPSRFSGNGSGTEFTLTISSLQPDDFATYYCQQYHTYRTFGQGTKVEVK
B6: S728-430 (antibody, V domains shown)
VH: EVQLVESGGGLIQPGGSLRLSCAASGFTVSSNYMSWVRQAPGKGLEWVSVIYSGGSTYYADSVKGRFTISRDNSKNTLYLQMNSLRAEDTAVYYCARTPRGSRRGAFDIWGQGTMVTVSS
VL: not shown
B7: S728-1981 (antibody, V domains shown)
VH: QVQLVQSGAEVKKPGASVKVSCKTSGYTFTNYFMHWVRQAPGQGLEWMGIINPSGGSASYAQKFQGRITMTSDTSTSTVYMELSSLRSEDTAVYYCAREDIIVVVPARPLDYWGHGTLVTVSS
VL: EIVLTQSPATLSLSPGERATLSCRASQSFSNYLAWYQQKPGQAPRLLIYDASNRATGIPARFSGSGSGTDFTLTISSLEPEDFAVYYCQQRSNWPPLLTFGGGTKVEIK
B8: S728-2036 (antibody, V domains shown)
VH: QVHLVQSGAEIRKPGASVMVSCKASGYTFTDYYIHWVRQAPGQGLEWMGWINPNSGGTNYAQKFQGRVTMTRDTSIRTAYMELSRLRSDDAAVYYCAREGISMLRGVRSWFDPWGQGTLVTVSS
VL: QSALTQPASVSGSPGQSITISCTGTSSDVGSYNLVSWYQQHPGKVPKLIIYEVTKRPSGVSNRFSGSKSGNTASLTISGLQTEDEADYYCCSYAGFSAWVFGGGTKLTVL
B9: S728-1690 (antibody, V domains shown)
VH: QVQLVQSGAEVVKPGSSVKVSCKASGGTFTRYAISWVRQAPGQGPEWMGRIIPMFGIANYAQRFQGRVTMTADKSTSTAYMELSSLRSEDTAVYYCATCQYYYDSSGYGSLDYWGQGTQVTVSS
VL: EIVLTQSPGTLSLSPGERVTLSCRASQSISSNFLAWYQQKPGQAPRLLISGASSRATGIPDRFSGGGSGTDFTLTISRLEPEDFAVYYCQQYHSSPRTFGQGTKVEIK
B10: S728-537 (antibody, V domains shown)
VH: QVQLVQSGAEVKKPGASVKVSCKTSGYTFTGFYLHWLRQAPGQGLEWMGRINPNTGDTDYAQKFQGRVTMTRDTSISTAYMELSRLRADDTAVYYCARTPGQTRQLFVGTNVLDVWGQGTMVTVSS
VL: DIQMTQSPSSVSASVGDRVTITCRASQGISSWLAWYQQKPGKAPKVLIFAASSLQSGVPSRFSGSGSGTDFTLTITSLQPEDFATYFCQQTNSFPPTFGGGTKVEIK
B11: S728-1157 (antibody, V domains shown)
VH: EVQLVESGGGLVQPGGSLRLSCAASGLLVSRNYMNWVRQAPGKGLEWVSIIYSGGSTFYADSVEGRFTISRDESKNTLYLQMNSLRTDDTAVYYCARDLSDYGGIDCWGQGTLVTVSS
VL: YELTQPLSVSMALGQTARISCGGDNVGSQNVHWYQQRPGQAPVLVIYRDSNRPSGIPERFSGSKSGNTATLTISRAQAGDEADYYCQVWDSSTVAFGGGTKLTVL
B12: S144-69 (antibody, V domains shown)
VH: EVQLVQSGAEVKKPGESLKISCKGSGYSFTSYWIGWVRQMPGKGLEWMGIIYPGDSDTRYSPSFQGQVTISADKSITTAYLQWSSLKASDTAMYYCARTQTTNWFDSWGQGTLVTVSS
VL: DIQMTQSPSTLSVSVGDRVTITCRASQSVSSWLAWYQQKPGKAPKLLIYDASSLESGVPSRFSGSGSGTEFTLTISSLQPDDFATYYCQQYNSFYTFGQGTKLEIK
B13: S564-152 (antibody, V domains shown)
VH: QVQLVESGGGVVQPGRSLRLSCAASGFTFSYYGMHWVRQAPGKGLEWVAVIWYDGSNKHYADSVKGRFTISRDNSKNTLYLQMNSLRAEDTAVYYCAKNAAPYCSGGSCYGTYFDYWGQGTLVTVSS
VL: DIQMTQSPSSLSASVGDRVTITCQASQDINNYLNWYQQKPGKAPKLLIYDASNLETGVPSRFSGSGSGTDFTFTISSLQPEDIATYYCQQYDNVPPHTFGQGTKLEIK
B14: S144-509 (antibody, V domains shown)
VH: EVQLVQSGAEVKKPGESLKISCKGSAYTFTTYWIGWVRQMPGKGLEWMGIIYPGDSDTRYSPSFQGQVTISADKSISTAYLQWSSLKASDTAMYYCARLLLVAGPFDYWGQGTLVTVSS
VL: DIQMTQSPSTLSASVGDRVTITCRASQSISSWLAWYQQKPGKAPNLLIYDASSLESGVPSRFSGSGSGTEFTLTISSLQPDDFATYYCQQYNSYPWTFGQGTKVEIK
B15: S24-1384 (antibody, V domains shown)
VH: EVQLVESGGGLVQPGGSLRLSCAVSGFTFSSYSMNWVRQAPGKGLEWVSYISSSSSIIYYADSVKGRFTISRDNAKNSLYLQMNSLRAEDTAVYYCARDFLDYSRSYSYGMDVWGQGTTVTVSS
VL: SYVLTQPPSVSVAPGQTARITCGGDNIGSKNVHWYQQKPGQAPVLVVFDDSDRPSGIPERFSGSNSGNTATLTISRVEAGDEADYYCQVWDSSSDHYVVFGGGTKLTVL
B16: S144-466 (antibody, V domains shown)
VH: EVQLVQSGAEVKKPGESLKISCKGSGYRFTRYWIGWVRQMPGKGLEWMGIIYLGDSETRYSPSFQGQVTISADNSISTAYLQWSSLKASDTAMYYCARSSNWNYGDYWGQGTLVTVSS
VL: DIQMTQSPSTLSASVGDRVTITCRASQSITSWLAWYQQKSGKAPKLLIYDASSLESGVPSRFSGSGSGTEFTLTISSLQPDDFATYYCQQYNSYPWTFGQGTKVEIK
B17: S728-430 (antibody, V domains shown)
VH: EVQLVESGGGLIQPGGSLRLSCAASGFTVSSNYMSWVRQAPGKGLEWVSVIYSGGSTYYADSVKGRFTISRDNSKNTLYLQMNSLRAEDTAVYYCARTPRGSRRGAFDIWGQGTMVTVSS
VL: not shown

target: T2, SARS-CoV-2 spike receptor-binding domain (RBD), WT (SARS-CoV-2, UniProt P0DTC2 319-541); assay: epitope specificity column of the table of RBD-reactive mAbs (ELISA)
T2 construct: domain: RBD

Question: Does B1 bind?
Answer: Result: binds

Question: Does B2 bind?
Answer: Result: binds

Question: Does B3 bind?
Answer: Result: binds

Question: Does B4 bind?
Answer: Result: binds

Question: Does B5 bind?
Answer: Result: binds

Question: Does B6 bind?
Answer: Result: binds

target: T3, S1 monomeric WT (SinoBiological) (SARS-CoV-2, UniProt P0DTC2 16-685); assay: ELISA
T3 construct: domain: S1

Question: Does B7 bind?
Answer: Result: binds

Question: Does B8 bind?
Answer: Result: binds

target: SARS-CoV-1 RBD WT (SARS-CoV-1, UniProt P59594 306-527); assay: ELISA

Question: Does B9 bind?
Answer: Result: no binding (tested: 10 ug/ml top of dilution series)

Question: Does B10 bind?
Answer: Result: no binding (tested: 10 ug/ml top of dilution series)

Question: Does B11 bind?
Answer: Result: no binding

Question: Does B12 bind?
Answer: Result: binds

Question: Does B13 bind?
Answer: Result: binds

Question: Does B14 bind?
Answer: Result: binds

Question: Does B15 bind?
Answer: Result: binds

Question: Does B16 bind?
Answer: Result: binds

Question: Does B17 bind?
Answer: Result: no binding (tested: 10 ug/ml top of dilution series)

target: T1, MERS-CoV RBD WT; assay: ELISA

Question: Does B9 bind?
Answer: Result: no binding (tested: 10 ug/ml top of dilution series)

Question: Does B10 bind?
Answer: Result: no binding (tested: 10 ug/ml top of dilution series)

Question: Does B17 bind?
Answer: Result: no binding (tested: 10 ug/ml top of dilution series)
